# Laboratory results published in the supplement of paper PMC10065799, “High-throughput profiling of sequence recognition by tyrosine kinases and SH2 domains using bacterial peptide display” (eLife, 2023).
# Biological target: MERTK (UniProt Q12866)
# Test: phosphorylation enrichment, bacterial display (enrichment ratio); higher = better substrate or ligand; peptides without Tyr show the background
# 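Further: 11-residue human phosphosite peptides and single-mutation variants displayed on the E. coli surface, counted by deep sequencing, each peptide's frequency after selection divided by its frequency in the unselected input library; frequency after pTyr selection over input frequency; kinase dosed for 20-30% of maximal phosphorylation in three min.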
# Sequence of MERTK (Q12866 whole entry, looked up): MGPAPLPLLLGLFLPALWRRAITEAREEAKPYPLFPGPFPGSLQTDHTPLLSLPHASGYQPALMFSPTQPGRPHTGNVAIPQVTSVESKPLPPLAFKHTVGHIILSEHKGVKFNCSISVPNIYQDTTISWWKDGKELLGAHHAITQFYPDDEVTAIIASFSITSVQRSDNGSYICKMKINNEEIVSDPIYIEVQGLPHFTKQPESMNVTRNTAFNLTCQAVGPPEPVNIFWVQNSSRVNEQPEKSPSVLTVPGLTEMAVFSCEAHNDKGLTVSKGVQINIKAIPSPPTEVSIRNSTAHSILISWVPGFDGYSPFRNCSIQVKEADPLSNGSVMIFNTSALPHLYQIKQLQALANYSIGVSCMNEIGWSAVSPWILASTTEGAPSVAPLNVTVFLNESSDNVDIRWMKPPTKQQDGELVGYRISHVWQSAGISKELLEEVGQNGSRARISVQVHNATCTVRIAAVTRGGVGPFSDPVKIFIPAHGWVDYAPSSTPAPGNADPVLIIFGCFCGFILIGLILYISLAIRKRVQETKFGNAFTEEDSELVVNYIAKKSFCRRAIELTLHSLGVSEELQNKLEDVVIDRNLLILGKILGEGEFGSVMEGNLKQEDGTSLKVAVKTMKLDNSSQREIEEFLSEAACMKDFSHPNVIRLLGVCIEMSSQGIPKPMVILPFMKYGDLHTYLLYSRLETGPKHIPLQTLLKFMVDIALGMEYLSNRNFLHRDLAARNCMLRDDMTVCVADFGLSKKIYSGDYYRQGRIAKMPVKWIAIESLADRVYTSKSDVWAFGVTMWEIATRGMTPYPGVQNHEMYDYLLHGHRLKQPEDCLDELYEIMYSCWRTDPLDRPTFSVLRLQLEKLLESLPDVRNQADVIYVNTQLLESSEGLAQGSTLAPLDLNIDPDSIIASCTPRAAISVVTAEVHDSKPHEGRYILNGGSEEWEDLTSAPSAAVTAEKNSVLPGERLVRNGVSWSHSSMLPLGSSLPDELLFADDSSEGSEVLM
row,Sequence,phosphorylation enrichment
1,AFLLLYFNDTH [BMP15_Y235],0.43
2,FDAHNYHPLPV [OAT_Y55_G51D_YF],1.09
3,RLQEDYDHSFF [ESD_Y258_G257D_YF],0.649
4,SVTCTYSPAIN [TP53_Y126_L130I],0.466
5,CSRRLYQLTKL [AR_Y858_F857L],0.558
6,PDMHSYVVRYN [GRIN2D_Y732_M733V],0.413
7,RMETEYGPSVT [MXRA5_Y2717],0.54
8,LGRTRYQHVTG [MIPEP_Y510],0.499
9,LGRGKYSEVFE [CSNK2A1_Y50],0.753
10,FFVVEYRDQKP [MUC17_Y4332_YF],0.374
11,DWQQEYVLNES [TGM1_Y267_R264Q],0.427
12,YKEQGYHRLPS [RIN1_Y681_P686S],0.413
13,PSQRRYLFFFS [PTEN_Y174_V175L_YF],0.756
14,LSIQCYLRALD [HMGCS2_Y262],0.802
15,CTTIHYIFMCN [TP53_Y234_N235I_YF],0.327
16,GRDVIYKGFED [NFU1_Y194_G190R],0.391
17,ERLWDYGMSSS [F8_Y1728],0.399

row,Sequence,phosphorylation enrichment
1,TARWEYMHSPS [CPOX_Y429],1.08
2,HKGASYAFRLS [PTPRD_Y891_V892A],0.525
3,PMDTFYDSTRG [DYNC2H1_Y2231_YF],0.501
4,YRQNGYIPGSN [PCDHGA1_Y895_V894G],0.405
5,GYRVCYTPDSR [PTPRF_Y451_Y450C],0.434
6,SDVLSYGVTMW [ZAP70_Y525_W523L],0.342
7,GHLYANDWISI [BEST1_Y227_Y227N],3.32
8,TFRPPYYHRNC [HGD_Y333],0.498
9,NSIGNYFKPWF [DHCR24_Y299_YF],4.54
10,LHVGFYESDVM [A2M_Y708_R704H],1.15
11,GSESDYIIMPN [SCARB1_Y133_V135I],0.551
12,PMQLPYDSRWE [PDGFRA_Y582],0.353
13,GSSKIYFLHPD [TLR5_Y108],2.89
14,LDTFIYDAAVL [GRIN2A_Y730_A727T],2.94
15,INNIDYYKNTT [FGFR2_Y656_K659N],0.428
16,VNFGAYINFFK [GLB1_Y488_D491Y_YF],0.57

# Biological target: FGFR3 (UniProt P22607)
# Test: as above
# Sequence of FGFR3 (P22607 whole entry, looked up): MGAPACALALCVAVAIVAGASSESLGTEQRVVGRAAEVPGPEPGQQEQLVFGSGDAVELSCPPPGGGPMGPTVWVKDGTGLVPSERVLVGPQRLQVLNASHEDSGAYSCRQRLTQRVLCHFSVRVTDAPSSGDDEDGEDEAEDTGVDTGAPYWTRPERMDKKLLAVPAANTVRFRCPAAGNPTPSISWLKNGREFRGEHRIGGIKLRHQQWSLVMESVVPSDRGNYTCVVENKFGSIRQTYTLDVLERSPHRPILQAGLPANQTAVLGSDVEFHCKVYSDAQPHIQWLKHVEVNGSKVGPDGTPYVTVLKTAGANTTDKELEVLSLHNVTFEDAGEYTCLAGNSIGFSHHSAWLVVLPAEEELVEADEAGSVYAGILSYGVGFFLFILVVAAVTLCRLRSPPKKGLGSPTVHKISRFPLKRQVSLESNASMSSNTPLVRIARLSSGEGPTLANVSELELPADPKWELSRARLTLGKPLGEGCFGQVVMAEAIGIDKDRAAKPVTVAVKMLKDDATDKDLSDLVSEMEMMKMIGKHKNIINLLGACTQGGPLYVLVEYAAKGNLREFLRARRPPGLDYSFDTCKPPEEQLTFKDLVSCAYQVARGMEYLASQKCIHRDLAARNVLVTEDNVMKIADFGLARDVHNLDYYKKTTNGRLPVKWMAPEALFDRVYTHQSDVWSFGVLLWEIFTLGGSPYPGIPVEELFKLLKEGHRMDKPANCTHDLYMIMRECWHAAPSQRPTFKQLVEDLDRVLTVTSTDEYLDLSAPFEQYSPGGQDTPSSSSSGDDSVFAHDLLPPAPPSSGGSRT
row,Sequence,phosphorylation enrichment
1,AFLLLYFNDTH [BMP15_Y235],0.915
2,FDAHNYHPLPV [OAT_Y55_G51D_YF],5.97
3,RLQEDYDHSFF [ESD_Y258_G257D_YF],1.2
4,SVTCTYSPAIN [TP53_Y126_L130I],1.1
5,CSRRLYQLTKL [AR_Y858_F857L],0.456
6,PDMHSYVVRYN [GRIN2D_Y732_M733V],0.844
7,RMETEYGPSVT [MXRA5_Y2717],0.718
8,LGRTRYQHVTG [MIPEP_Y510],0.428
9,LGRGKYSEVFE [CSNK2A1_Y50],0.805
10,FFVVEYRDQKP [MUC17_Y4332_YF],0.803
11,DWQQEYVLNES [TGM1_Y267_R264Q],0.996
12,YKEQGYHRLPS [RIN1_Y681_P686S],0.485
13,PSQRRYLFFFS [PTEN_Y174_V175L_YF],0.915
14,LSIQCYLRALD [HMGCS2_Y262],1.91
15,CTTIHYIFMCN [TP53_Y234_N235I_YF],0.657
16,GRDVIYKGFED [NFU1_Y194_G190R],0.539
17,ERLWDYGMSSS [F8_Y1728],0.742

row,Sequence,phosphorylation enrichment
1,TARWEYMHSPS [CPOX_Y429],0.69
2,HKGASYAFRLS [PTPRD_Y891_V892A],1.11
3,PMDTFYDSTRG [DYNC2H1_Y2231_YF],0.806
4,YRQNGYIPGSN [PCDHGA1_Y895_V894G],0.439
5,GYRVCYTPDSR [PTPRF_Y451_Y450C],0.739
6,SDVLSYGVTMW [ZAP70_Y525_W523L],0.642
7,GHLYANDWISI [BEST1_Y227_Y227N],0.674
8,TFRPPYYHRNC [HGD_Y333],0.486
9,NSIGNYFKPWF [DHCR24_Y299_YF],1.41
10,LHVGFYESDVM [A2M_Y708_R704H],1.21
11,GSESDYIIMPN [SCARB1_Y133_V135I],3.91
12,PMQLPYDSRWE [PDGFRA_Y582],0.712
13,GSSKIYFLHPD [TLR5_Y108],1.85
14,LDTFIYDAAVL [GRIN2A_Y730_A727T],0.991
15,INNIDYYKNTT [FGFR2_Y656_K659N],0.538
16,VNFGAYINFFK [GLB1_Y488_D491Y_YF],0.963

# Test system: c-Abl (mouse)
# Test: as above
row,Sequence,phosphorylation enrichment
1,AFLLLYFNDTH [BMP15_Y235],1.16
2,FDAHNYHPLPV [OAT_Y55_G51D_YF],0.807
3,RLQEDYDHSFF [ESD_Y258_G257D_YF],1.19
4,SVTCTYSPAIN [TP53_Y126_L130I],1.08
5,CSRRLYQLTKL [AR_Y858_F857L],0.728
6,PDMHSYVVRYN [GRIN2D_Y732_M733V],0.694
7,RMETEYGPSVT [MXRA5_Y2717],0.92
8,LGRTRYQHVTG [MIPEP_Y510],0.564
9,LGRGKYSEVFE [CSNK2A1_Y50],0.924
10,FFVVEYRDQKP [MUC17_Y4332_YF],0.617
11,DWQQEYVLNES [TGM1_Y267_R264Q],0.788
12,YKEQGYHRLPS [RIN1_Y681_P686S],0.455
13,PSQRRYLFFFS [PTEN_Y174_V175L_YF],0.991
14,LSIQCYLRALD [HMGCS2_Y262],1.98
15,CTTIHYIFMCN [TP53_Y234_N235I_YF],0.695
16,GRDVIYKGFED [NFU1_Y194_G190R],0.561
17,ERLWDYGMSSS [F8_Y1728],0.767

row,Sequence,phosphorylation enrichment
1,TARWEYMHSPS [CPOX_Y429],0.363
2,HKGASYAFRLS [PTPRD_Y891_V892A],0.846
3,PMDTFYDSTRG [DYNC2H1_Y2231_YF],0.582
4,YRQNGYIPGSN [PCDHGA1_Y895_V894G],0.47
5,GYRVCYTPDSR [PTPRF_Y451_Y450C],0.794
6,SDVLSYGVTMW [ZAP70_Y525_W523L],0.645
7,GHLYANDWISI [BEST1_Y227_Y227N],0.587
8,TFRPPYYHRNC [HGD_Y333],0.599
9,NSIGNYFKPWF [DHCR24_Y299_YF],8.06
10,LHVGFYESDVM [A2M_Y708_R704H],0.761
11,GSESDYIIMPN [SCARB1_Y133_V135I],0.466
12,PMQLPYDSRWE [PDGFRA_Y582],0.577
13,GSSKIYFLHPD [TLR5_Y108],0.642
14,LDTFIYDAAVL [GRIN2A_Y730_A727T],7.38
15,INNIDYYKNTT [FGFR2_Y656_K659N],0.574
16,VNFGAYINFFK [GLB1_Y488_D491Y_YF],1.49

# Biological target: EPHB2 (UniProt P29323)
# Test: as above
# Sequence of EPHB2 (P29323 whole entry, looked up): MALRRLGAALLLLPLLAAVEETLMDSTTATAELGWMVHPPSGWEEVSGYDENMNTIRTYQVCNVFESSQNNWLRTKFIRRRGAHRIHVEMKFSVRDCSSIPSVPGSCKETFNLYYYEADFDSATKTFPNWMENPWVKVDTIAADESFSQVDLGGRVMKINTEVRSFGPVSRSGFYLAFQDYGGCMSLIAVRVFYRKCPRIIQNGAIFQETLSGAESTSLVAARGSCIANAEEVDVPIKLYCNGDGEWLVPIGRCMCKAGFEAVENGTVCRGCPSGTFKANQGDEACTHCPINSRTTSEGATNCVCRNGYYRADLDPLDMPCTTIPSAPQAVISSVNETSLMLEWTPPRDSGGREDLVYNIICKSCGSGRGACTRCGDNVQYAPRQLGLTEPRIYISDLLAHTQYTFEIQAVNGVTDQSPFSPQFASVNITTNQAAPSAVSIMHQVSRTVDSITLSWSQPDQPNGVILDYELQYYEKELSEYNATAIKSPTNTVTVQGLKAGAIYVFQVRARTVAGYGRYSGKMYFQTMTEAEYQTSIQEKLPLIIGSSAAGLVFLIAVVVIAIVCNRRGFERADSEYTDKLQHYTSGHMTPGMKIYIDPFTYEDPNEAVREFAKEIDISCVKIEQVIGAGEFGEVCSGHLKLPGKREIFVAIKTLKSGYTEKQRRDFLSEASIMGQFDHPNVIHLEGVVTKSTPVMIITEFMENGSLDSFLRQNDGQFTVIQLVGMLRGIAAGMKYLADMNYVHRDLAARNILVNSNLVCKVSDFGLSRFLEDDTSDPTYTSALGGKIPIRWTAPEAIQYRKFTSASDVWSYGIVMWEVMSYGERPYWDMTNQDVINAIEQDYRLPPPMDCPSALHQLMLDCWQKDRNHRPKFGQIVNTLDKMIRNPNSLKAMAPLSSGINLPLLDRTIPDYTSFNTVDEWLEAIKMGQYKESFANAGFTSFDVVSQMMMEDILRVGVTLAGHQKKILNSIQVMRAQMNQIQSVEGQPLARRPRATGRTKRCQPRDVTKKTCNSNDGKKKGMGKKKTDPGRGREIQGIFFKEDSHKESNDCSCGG
row,Sequence,phosphorylation enrichment
1,AFLLLYFNDTH [BMP15_Y235],0.496
2,FDAHNYHPLPV [OAT_Y55_G51D_YF],0.762
3,RLQEDYDHSFF [ESD_Y258_G257D_YF],0.912
4,SVTCTYSPAIN [TP53_Y126_L130I],0.735
5,CSRRLYQLTKL [AR_Y858_F857L],0.59
6,PDMHSYVVRYN [GRIN2D_Y732_M733V],0.723
7,RMETEYGPSVT [MXRA5_Y2717],0.929
8,LGRTRYQHVTG [MIPEP_Y510],0.393
9,LGRGKYSEVFE [CSNK2A1_Y50],0.798
10,FFVVEYRDQKP [MUC17_Y4332_YF],0.647
11,DWQQEYVLNES [TGM1_Y267_R264Q],0.615
12,YKEQGYHRLPS [RIN1_Y681_P686S],0.366
13,PSQRRYLFFFS [PTEN_Y174_V175L_YF],0.804
14,LSIQCYLRALD [HMGCS2_Y262],1.31
15,CTTIHYIFMCN [TP53_Y234_N235I_YF],0.554
16,GRDVIYKGFED [NFU1_Y194_G190R],0.401
17,ERLWDYGMSSS [F8_Y1728],0.578

row,Sequence,phosphorylation enrichment
1,TARWEYMHSPS [CPOX_Y429],0.624
2,HKGASYAFRLS [PTPRD_Y891_V892A],0.581
3,PMDTFYDSTRG [DYNC2H1_Y2231_YF],1.04
4,YRQNGYIPGSN [PCDHGA1_Y895_V894G],0.404
5,GYRVCYTPDSR [PTPRF_Y451_Y450C],0.592
6,SDVLSYGVTMW [ZAP70_Y525_W523L],0.604
7,GHLYANDWISI [BEST1_Y227_Y227N],0.619
8,TFRPPYYHRNC [HGD_Y333],0.474
9,NSIGNYFKPWF [DHCR24_Y299_YF],5.26
10,LHVGFYESDVM [A2M_Y708_R704H],1.14
11,GSESDYIIMPN [SCARB1_Y133_V135I],6.96
12,PMQLPYDSRWE [PDGFRA_Y582],0.623
13,GSSKIYFLHPD [TLR5_Y108],0.624
14,LDTFIYDAAVL [GRIN2A_Y730_A727T],2.05
15,INNIDYYKNTT [FGFR2_Y656_K659N],0.451
16,VNFGAYINFFK [GLB1_Y488_D491Y_YF],0.558
